Laboratory results from patent publication US20060115479A1 (INTERCELL, published 2006).

T1: human fibrinogen (human, UniProt P02671 20-629; P02675 31-491; P02679 27-437)
T1 construct: also called 125I-labelled fibrinogen; immobilized fibrinogen
T1 sequence 1: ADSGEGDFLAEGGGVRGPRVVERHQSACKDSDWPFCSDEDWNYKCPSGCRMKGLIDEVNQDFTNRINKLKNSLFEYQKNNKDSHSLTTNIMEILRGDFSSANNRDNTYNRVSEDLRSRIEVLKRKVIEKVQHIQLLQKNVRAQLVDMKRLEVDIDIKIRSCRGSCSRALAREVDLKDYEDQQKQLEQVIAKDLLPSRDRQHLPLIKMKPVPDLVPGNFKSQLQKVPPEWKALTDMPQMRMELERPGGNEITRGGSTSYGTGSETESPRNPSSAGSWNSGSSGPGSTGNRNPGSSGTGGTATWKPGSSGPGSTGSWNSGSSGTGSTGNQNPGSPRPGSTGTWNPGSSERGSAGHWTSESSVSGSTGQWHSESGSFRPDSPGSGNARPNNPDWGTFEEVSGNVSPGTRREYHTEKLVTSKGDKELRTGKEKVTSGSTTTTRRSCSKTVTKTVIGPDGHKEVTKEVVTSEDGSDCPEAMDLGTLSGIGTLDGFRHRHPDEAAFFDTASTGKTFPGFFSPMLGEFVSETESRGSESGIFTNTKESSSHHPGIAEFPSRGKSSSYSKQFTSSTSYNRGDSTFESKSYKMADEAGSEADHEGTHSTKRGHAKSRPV
T1 sequence 2: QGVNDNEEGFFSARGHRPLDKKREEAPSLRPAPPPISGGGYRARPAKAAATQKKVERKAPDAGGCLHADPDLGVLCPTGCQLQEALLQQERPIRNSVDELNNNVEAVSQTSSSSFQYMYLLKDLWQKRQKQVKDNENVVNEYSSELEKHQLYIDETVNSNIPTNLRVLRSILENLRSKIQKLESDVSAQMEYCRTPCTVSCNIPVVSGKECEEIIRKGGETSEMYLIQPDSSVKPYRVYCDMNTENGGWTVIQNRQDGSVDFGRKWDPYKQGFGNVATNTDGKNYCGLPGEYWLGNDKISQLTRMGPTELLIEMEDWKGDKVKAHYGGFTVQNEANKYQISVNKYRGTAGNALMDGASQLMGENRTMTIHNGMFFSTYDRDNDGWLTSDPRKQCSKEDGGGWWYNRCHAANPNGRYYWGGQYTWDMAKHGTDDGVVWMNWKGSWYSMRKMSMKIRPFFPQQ
T1 sequence 3: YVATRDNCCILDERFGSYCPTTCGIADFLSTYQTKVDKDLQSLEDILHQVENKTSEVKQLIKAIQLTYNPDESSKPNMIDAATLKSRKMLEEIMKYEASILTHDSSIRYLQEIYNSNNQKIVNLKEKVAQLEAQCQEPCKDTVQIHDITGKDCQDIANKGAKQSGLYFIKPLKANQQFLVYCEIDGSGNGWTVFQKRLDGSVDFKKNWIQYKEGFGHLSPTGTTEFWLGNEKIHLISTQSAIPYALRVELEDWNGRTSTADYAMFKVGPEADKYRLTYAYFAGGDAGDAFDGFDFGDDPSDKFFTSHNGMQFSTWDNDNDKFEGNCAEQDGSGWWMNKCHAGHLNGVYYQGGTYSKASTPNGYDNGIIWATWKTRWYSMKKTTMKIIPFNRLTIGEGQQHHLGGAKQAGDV

B1: scrambled peptide GLSQNRDVRENQRARE (peptide)
peptide: GLSQNRDVRENQRARE
notes: Same amino acids as the repeat unit in a different order; spotted on cellulose; also called randomised peptide

Key:
human fibrinogen (human) [1] = target: human fibrinogen (human) (UniProt P02671); test: FITC-labelled bacteria on fibrinogen-coated Terasaki plates; less than 2% of the fbsA mutant bound
human fibrinogen (human) [2] = target: human fibrinogen (human) (UniProt P02671); test: 125I-fibrinogen bound to whole bacteria; fbsA deletion mutant bound less than 2%
human fibrinogen (human) [3] = target: human fibrinogen (human) (UniProt P02671); test: FITC-labelled bacteria on immobilized fibrinogen; less than 2% of the fbsA mutants bound (FIG. 23)
human fibrinogen (human) [4] = target: human fibrinogen (human) (UniProt P02671); test: radiolabelled soluble human fibrinogen bound to whole GBS 6313 cells; the filing later attributes the binding to FbsA
human fibrinogen [5] = target: T1, human fibrinogen; test: refers to the SPOT membrane analysis of FIG. 11
human fibrinogen [6] = target: T1, human fibrinogen; test: dot blot / SPOT membrane overlaid with human fibrinogen (FIG. 11)

Row | Molecule | percent of total bacteria bound to immobilized fibrinogen (human fibrinogen (human) [1]) [%] | percent binding of 125I-labelled soluble fibrinogen (human fibrinogen (human) [2]) [%] | percent of total bacteria bound to immobilized fibrinogen (human fibrinogen (human) [3]) [%] | binding result (human fibrinogen [5]) | other results
1 | FbsA protein of GBS strain O90R (native) (receptor) | 24 | 12 | 18 |  | 
2 | FbsA protein of GBS strain 0176 H4A (native) (receptor) |  |  | 4 |  | 
3 | FbsA protein of GBS strain SS1169 (native) (receptor) |  |  | 7 |  | 
4 | FbsA protein of GBS strain 706 S2 (native) (receptor) | 15 | 8 | 14 |  | 
5 | FbsA protein of GBS strain 6313 (native) (receptor) | 45 | 50 | 45 |  | percent of total radiolabelled fibrinogen bound (human fibrinogen (human) [4]): 50%
6 | GAVLERRQRDAENRSQ (also called peptide <2>; N2A) [alanine mutant peptide GAVLERRQRDAENRSQ] |  |  |  | no binding | 
7 | GNVLERAQRDAENRSQ (also called peptide <5>; R7A) [alanine mutant peptide GNVLERAQRDAENRSQ] |  |  |  | no binding | 
8 | GNALERRQRDAENRSQ (also called peptide <3>; V3A) [alanine mutant peptide GNALERRQRDAENRSQ] |  |  |  | no binding | 
9 | B1 |  |  |  |  | binding result (human fibrinogen [6]): no binding (tested: 2 µg/ml of human fibrinogen)
